Molecular target: Deinococcus radiodurans DNA polymerase III β subunit (β-clamp), short version of 362 amino acids (Deinococcus radiodurans strain R1)
Test: SEC; Superdex 75 10/30, purified Drβ-clamp, size and tertiary structure analysis

Substance: Deinococcus radiodurans DNA polymerase III β subunit (β-clamp), short version of 362 amino acids (natural protein)
- stoichiometry N: 2

Reference: publication PMC4350885
